Test results as given in the supplement of paper PMC9170038.

Test system: K4 kissing-loop RNA reporter
Assay: apparent KD of K4 kissing-loop reporter; higher = weaker reporter binding
Conditions: Eterna round: R107; input ligand: theophylline 20 uM
Procedure: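 RNA-MaP round R107: designed RNA switches with theophylline, tryptophan, arginine or FMN aptamers are transcribed on-chip within common flanks. They are titrated with a labelled K4 kissing-loop RNA reporter in RNA-MaP buffer (100 mM Tris pH 7.5, 80 mM KCl, 4 mM MgCl2), without ligand or with the indicated ligand. Median apparent KD per design.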
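Further: bound reporter read as fluorescence of individual clusters on recovered sequencing chips by microscopy, with normalized cluster intensities fitted with a binding model.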

| Sequence | apparent KD of K4 kissing-loop reporter [µM] |
| --- | --- |
| CUCGACACGGGAAGGAGCGGUUGCGUGUGCCAGUGAUGUUGGAUCAGCAGACUGCCCGGUAGCCAGGUAGGUCGCCUGUGCUGAG [Esbeescexe] | 0.189 |
| AAGUGAUGUUGUAGUGAUGUUGUGAUGUUGCAGGAUAUAUAGUGAUGUAGAAGGGUAUGUUCAGUUUUUUUUUUUGAGUGUUGAU [szxmullin] | 0.0476 |
| GGAUCCACCAGUGAUGUUGGAGAAAACUCUAAGGAUAUGACGAAAGUCAGAAGGUGGUAGACUGGGCAAAGUCCGGUCGGAUCCA [FmnA10 U30+G66] | 0.873 |
| GGAUAGGAUAGAGGAUAUGGUAUAGGCAAGAAUAACUUGUCAUGUAAAUCCAUGAGGAGUGAUGUUCCAGAAGGCUGUCCUAUCG [MatMod 9 - Jieux - Exclusion - FMN B] | 0.168 |
| UCGGGAGGCCGAAGGAGCGCCGCCAGUGAUGUUGGGAGUUAGAUACCAGUGAUGUUGGGCCGGCAGGUAGGUCGCGGCCGCGGAU [Exclusion Arginine B Gf 18] | 0.168 |
| AGUGAUGUUGAGUUAUCUUAGUGAAGUGAUCGAGGACCGGUACGGCCGCCACUCGAGUGAUGAGUGAGUGAUGUUUGUUUAGGGA [llkmullin] | 0.765 |
| AGUGAUGUUUCUUUUAAGAGUGAUGUUUUUCGAGGACCGGUACGGCCGCCACUCGAGUGAUGAGUGCGUCGUUGUGGUGAUUAGU [#13 K4 Tryptophan A Exclusion] | 0.379 |
| GGCAGUGAUGUUGCCAGUGGCAGAUGCGAAGGAGCGCAGUGAGAUGCAGGUAGGUCGCGCAUUGAAAUUGCUGUCACUAAAAUGC [#2] | 0.276 |
| GAAAGAAAGAAUGAUACCAGACACCCGAGUGAUGUUCGGAGCAGAGUGAUGUUCUUAUAAGUCCCUUGGCAGCAUAAAAGAAAAG [whbob_SS_Theo_B_sa82] | 0.186 |
| AAGUGUGUGGCGGCCGCCACUAGAAUCCAGUGAUGUUGGAGUUAUCAAAUAAAUGAUAAUCAACAUAGGACCGGGCCAUAUAGAA [Same State - Tryptophan B (Freestyle 4)] | 0.523 |

Same assay, conditions: Eterna round: R107; input ligand: tryptophan 2.4 mM

| Sequence | apparent KD of K4 kissing-loop reporter [µM] |
| --- | --- |
| GCCGUAGAUUGAAGGAGCGGACAGAUACGGGAAUCCAGUGAUGUUGGAAGGUAACUACUAGUCCAGGUAGGUCGCAAUCUACGGC | 0.129 |
| AGAUCUGUAACAGAUACCAGAGGACGAUGAUCGAACAGUGAUGUUAUCUGUUAGUCGUCGCUCCCUUGGCAGCUGUUACAGAUCA [Omei KL Theo B SS B v4] | 0.0849 |
| AGUGUUAGGUUAGAUACCAGCCGUCCGUGGAUAACCCUCGGACCGCCAGUGAUGUUGGCAGGCCCUUGGCAGCUAACAGAACAGA [Beriisa] | 0.199 |
| GCAGUGAUGUUGCGGAUGUACAGUGGAGUGCGAGGACCGGUACGGCCGCCACUCGUACAGAACAAGCUAAUACAUCGAUAGGUGA [XI] | 0.339 |
| GGAGCUACCUGGGAUACCAGUCGGAGUCUCAGAGCUCGGAGUGAUGUUCUGGGAUGUUUCGGCCCUUGGCAGCUCUGGGACUCCU [#2 Exclusion - Theophylline B Attempt #18 (HarryS)] | 0.881 |
| AACGCUGUGAAUAACACAGCGAAUAAUUCGCGAGGACCGGUACGGCCGCCACUCGCUAACUGCGAGUGAUGUUCGAUAAUAAAAU [Mat - Mod of OpenEnded 3 - D12] | 0.113 |
| GAAGGUCAAAGACCUUCGUGCACAACUGAUACCAGUCGCGAAAGCGACCCUUGGCAGCAGGGCAGUGAUGUUGCCAGUGCACAAA [Omei KL Theo A SS A v3] | 0.169 |
| UGUGUUGUUUUGAUGUUUGUUGUAAGGUGGCAGGAUAUCGUAGAGGCGAGAAGGGCUUUUUUGCGUUAUGAGUGAUGUUUGUAGG [exeerzmullin] | 0.386 |
| GCAGCACCGAGUGAUGUUUGGUUCAGCGUGAAGGAUAUAAUAUCUGUUAGAAGGUCAAGUGAGAUUGUCGCGAAUCAGUUUUGAU [theeternabot_exclusion_KL_FMN_A_41] | 0.29 |
| AAUAGAUCAUUAUAGUGAUAAAUGCCUGAUACCAGUGAGAGAUGGCACCCUUGGCAGCAGAGAUGAGUGAUGUUCAGACUGUAAA [theeternabot_sameState_KL_Theo_A_11] | 0.091 |
| UACUAGUGAAACUAGUAGGUGCUAGGUGAAGGAGCGAUCGAAAGAUCAGGUAGGUCGCACCUUCCUGAGUGAUGUUCAGGUAAUA [KL-SSArg-A3] | 0.0409 |
| CAUGGUGCUCGCCAGUUGUGCGAACGGUGGGAGGAUAUGUCGCGAGACAGAAGGCCCAGUGAUGUUGGGCAGGCUCGUAGAUCGA [Mazadi] | 0.127 |
| AGUGAUAUAUGAGGAUAUGGGUUAAUUAGUGAGUUAUUUUUAGUGUUGUUUGAUUAGUGAUGUUAUUUAGAAGGCGUGAGUGAUG [awwswmjmullin] | 0.0617 |
| AUAUUAACUCAGUGAUGUUGAGUUGACGAAGGAGCGCUAGAGAUAGCAGGUAGGUCGCGUCAAUUUAAUGGAGACUAGCUUUACG [Arg A Ex t4] | 0.307 |
| UUGGGCAGUGAUGUUGGCUAGGCCACAGAUACCAGACGCAUGCACGUCCCUUGGCAGCUGCGAAAGUUAGACUUGUAAUGAUAGU [theeternabot_sameState_KL_Theo_A_45] | 0.217 |
| AGGGACUCUUCGGAGUCCCGGUUAAGGGAUACCAGUGAUGUUGGUCACCCUUGGCAGCCCAGAAACCAAGCCACCAAAGGUGGCA [Omei KL Theo A Exc A v2] | 0.121 |
| UAUCUUUGCUGAAGGAGCGAGCAUGUUGGAGUGAUGUUCCGUGCGAGUGAUGUUCGCAUAGCUCAGGUAGGUCGCAGUGGGAGGA [KL-SSArg B29] | 0.0862 |
| AGAAGAUAUCAAGAUACCAGCUCCCGGCCCAAAACCCAGAUACACGAGUGAUGUUCGUUCAGCCCUUGGCAGCUUGCCUAGUUCU [theeternabot_sameState_KL_Theo_B_6] | 0.0894 |
| UGUCAUGGAAACAUGAACGUUGAUGUUCGACGAGGACCGGUACGGCCGCCACUCGAGUAAUAGUCAGUGAUGUUGACUAGUCUAA [KL-SSTryp-A form1] | 0.0757 |
| CAACCGUAACACGAUACCAGCCUAGAAGCCAGUGAUGUUGGCCUUUUUUCGGAAAUGAAAGGCCCUUGGCAGCGUGGAUGAACUG [Dibibiquus] | 0.338 |

| Sequence | apparent KD of K4 kissing-loop reporter [µM] |
| --- | --- |
| GCCGUACGCAUGGAUACCAGCAUCAGAUCUUAGUGAUGUUAAGUCGAGAGUUGGUCAAAAUGCCCUUGGCAGCCAUGCGUACGGC | 0.0982 |
| UGUCAUUGGUCGGCCGCCACUAGAAGGUCAAAGACCAAAGAGUGAUGUUCUUAGACGAAAGUCACUAGGACCGGGACCGAUGACU [TrypBS 7 #SwitchBubble #K4Middle] | 0.2 |
| UGUCAUUGGUCUGAUACCAGCUGAUCGGAAACGAUCUUGCUGGAGUGAUGUUCCAGGAAAAGCCCUUGGCAGCAGACCGAUGACU [TheoBS 10 #SwitchBubble #StaticStem] | 1.22 |
| AUGACAGAAUCGGCCGCCACUCAUUGUCCUGUGGACAUUCUAGGAUUAGUGAUGUUUUUCCCAUCGAGGACCGGGAUACAGAUUG [theeternabot_sameState_KL_Trp_B_6] | 0.519 |
| GGUCUGCCGCAGUGAUGUUGCUGGCAUACACGAGGACCGGUACGGCCGCCACUCGAUGCUCCAAGAACCACCAAUCUUCGGUAUC [theeternabot_sameState_KL_Trp_A_48] | 0.236 |
| UGACUGGACUGAAGGAGCGCUGAAGGAGCGUAAGUAGUGAUGUUGCUUACAGGUAGGUCGCAGCAGGUAGGUCGCAGUCUAGUCU | 0.0437 |
| AGGAGCGUGCGAUGUAAAUCGCACGCUCCACGAGGACCGGUACGGCCGCCACUCGCUCGUGCAGAGUGAUGUUCUGCCGGCGAAU [#2 Same State - Tryptophan A Attempt #24 (HarryS)] | 0.26 |
| CUUACCCAUCGGAUGGAUCAACUGCACACGAAGGAUAUACACACGGGUAGAAGGUCGGGAUUCCAGUGAUGUUGGAUGGUACGAC [theeternabot_exclusion_KL_FMN_A_29] | 0.0742 |
| CGACUAUUUCGAUAGUCGAUAGACACGGAAGGAGCGGGAUUCGUCCCAGGUAGGUCGCCGUGAAGUUGAGUGAUGUUCAACGUGU [Arg A SS t13] | 0.147 |
| UGUCAUUGGUCGGCCGCCACUAGACGGACAUAAAGUCUGUCAUAAAGAGUGAUGUUCUUAAAUAAUAGGACCGGGACCGAUGACU [TrypBS 29 #SwitchBubble #StaticStem] | 0.218 |
| CUCGACACGGGAAGGAGCGGUUGCGUGUGCCAGUGAUGUUGGAUCAGCAGACUGCCCGGUAGCCAGGUAGGUCGCCUGUGCUGAG [Esbeescexe] | 0.142 |
| AAGUGAUGUUGUAGUGAUGUUGUGAUGUUGCAGGAUAUAUAGUGAUGUAGAAGGGUAUGUUCAGUUUUUUUUUUUGAGUGUUGAU [szxmullin] | 0.0665 |
| GGAUCCACCAGUGAUGUUGGAGAAAACUCUAAGGAUAUGACGAAAGUCAGAAGGUGGUAGACUGGGCAAAGUCCGGUCGGAUCCA [FmnA10 U30+G66] | 0.66 |
| GGAUAGGAUAGAGGAUAUGGUAUAGGCAAGAAUAACUUGUCAUGUAAAUCCAUGAGGAGUGAUGUUCCAGAAGGCUGUCCUAUCG [MatMod 9 - Jieux - Exclusion - FMN B] | 0.123 |
| UCGGGAGGCCGAAGGAGCGCCGCCAGUGAUGUUGGGAGUUAGAUACCAGUGAUGUUGGGCCGGCAGGUAGGUCGCGGCCGCGGAU [Exclusion Arginine B Gf 18] | 0.153 |
| AGUGAUGUUGAGUUAUCUUAGUGAAGUGAUCGAGGACCGGUACGGCCGCCACUCGAGUGAUGAGUGAGUGAUGUUUGUUUAGGGA [llkmullin] | 0.413 |
| AGUGAUGUUUCUUUUAAGAGUGAUGUUUUUCGAGGACCGGUACGGCCGCCACUCGAGUGAUGAGUGCGUCGUUGUGGUGAUUAGU [#13 K4 Tryptophan A Exclusion] | 0.229 |
| GGCAGUGAUGUUGCCAGUGGCAGAUGCGAAGGAGCGCAGUGAGAUGCAGGUAGGUCGCGCAUUGAAAUUGCUGUCACUAAAAUGC [#2] | 0.234 |
| GAAAGAAAGAAUGAUACCAGACACCCGAGUGAUGUUCGGAGCAGAGUGAUGUUCUUAUAAGUCCCUUGGCAGCAUAAAAGAAAAG [whbob_SS_Theo_B_sa82] | 0.153 |
| AAGUGUGUGGCGGCCGCCACUAGAAUCCAGUGAUGUUGGAGUUAUCAAAUAAAUGAUAAUCAACAUAGGACCGGGCCAUAUAGAA [Same State - Tryptophan B (Freestyle 4)] | 0.469 |
